{"source": "paper PMC8673750", "about": "(Cell Reports, 2021)", "binders": {"B1": {"name": "CV3-1 IgG (antibody, V domains shown)", "VH": "EVQLVESGPEVKKPGTSVKVPCKASGFTFTSSAVQWVRQARGQRLEWIGWIVVGSGNTNYAQKFQERVTITRDMSTSTAYMELSSLRSEDTAVYYCAAPSCSGGRCYDGFDIWGQGTMVTVSS", "VL": "not shown"}, "B2": {"name": "CV3-25 IgG (antibody, V domains shown)", "VH": "EVQLVESGAEVKKPGESLKISCKGSGYTFTRYWIGWVRQMPGKGLEWMGIIYPGDSDTRYSPSFQGHVTISADKSISTAYLQWNSLKASDTAMYYCARLPQYCSNGVCQRWFDPWGQGTLVTVSS", "VL": "EIVLTQSPSSVSASVGDRVTITCRASQGISSWLAWYQQKPGKAPKLLIYAASSLQSGVPSRFSGSGSGTDFTLTISSLQPEDFATYYCQQGNSFPYTFGQGTNLEIK"}}, "key": {"[1]": {"molecular_target": "SARS-CoV-2 S glycoprotein, original Wuhan-Hu-1 strain (WT), full-length, on 293T cells (SARS-CoV-2, UniProt P0DTC2)", "test": "flow cytometry on cells"}, "Peptide #289 11-mer": {"molecular_target": "T1, Peptide #289 11-mer (SARS-CoV-2, Wuhan-Hu-1)", "T1 chain": "DKYFKNHTSPD", "test": "SPR"}, "Peptide #288 15-mer": {"molecular_target": "T2, Peptide #288 15-mer (SARS-CoV-2, Wuhan-Hu-1)", "T2 chain": "KEELDKYFKNHTSPD", "test": "ELISA"}}}
{"binder": "B1", "values": [{"measurement": "binding result", "setting": "[1]", "result": "binds"}]}
{"binder": "B2", "values": [{"measurement": "Kd", "setting": "Peptide #289 11-mer", "result": "~1000", "unit": "nM"}, {"measurement": "binding result", "setting": "Peptide #288 15-mer", "result": "binds"}]}
